{
  "source": "patent US20120076728A1",
  "about": "(University of California, published 2012)",
  "molecules": {"B1": {"name": "CEA specific, cyclic peptide SDWVCEFIKSQWFCNVLASG (peptide)", "peptide": "SDWVCEFIKSQWFCNVLASG-HyNic", "modifications": "also: cyclic, bond type and places not given here", "notes": "also called anti-CEA peptide; CEA specific peptide"}},
  "key": {"[1]": {"target": "carcinoembryonic antigen (CEA) expressed by LS174T human colon carcinoma tumors (human (LS174T human colon carcinoma cells)) (UniProt P06731)", "assay": "cell-based or functional assay"}, "[2]": {"target": "T1, carcinoembryonic antigen (CEA), form not stated (UniProt P06731 35-685, limits assumed)", "T1 sequence (looked up)": "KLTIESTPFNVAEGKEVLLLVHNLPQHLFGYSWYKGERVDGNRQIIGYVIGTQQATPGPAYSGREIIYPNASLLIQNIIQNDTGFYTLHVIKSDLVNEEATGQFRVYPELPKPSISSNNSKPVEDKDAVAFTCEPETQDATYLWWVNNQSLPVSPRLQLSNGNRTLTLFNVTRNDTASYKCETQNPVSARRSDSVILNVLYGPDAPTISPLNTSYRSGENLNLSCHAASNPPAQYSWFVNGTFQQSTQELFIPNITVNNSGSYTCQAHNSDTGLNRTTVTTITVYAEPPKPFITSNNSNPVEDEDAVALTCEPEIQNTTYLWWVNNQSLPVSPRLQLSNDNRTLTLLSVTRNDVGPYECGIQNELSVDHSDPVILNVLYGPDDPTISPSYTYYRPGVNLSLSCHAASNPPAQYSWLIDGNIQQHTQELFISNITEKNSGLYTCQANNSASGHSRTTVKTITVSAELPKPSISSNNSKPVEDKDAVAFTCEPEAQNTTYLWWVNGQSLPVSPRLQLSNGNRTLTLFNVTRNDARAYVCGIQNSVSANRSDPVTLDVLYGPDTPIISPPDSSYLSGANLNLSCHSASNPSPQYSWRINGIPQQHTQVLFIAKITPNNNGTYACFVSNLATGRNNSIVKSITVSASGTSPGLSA", "assay": "not stated; given as a property of the peptide"}},
  "note": "No end group written: not given here.",
  "data": [
    {"molecule": "anti-CEA T84.66 diabody (Db)", "values": [
      {"measurement": "CEA positive-to-negative tumor uptake ratio at 51 h", "setting": "[1]", "result": 13}
    ]},
    {"molecule": "B1", "values": [
      {"measurement": "Kd", "setting": "[2]", "result": 0.16, "unit": "µM"}
    ]}
  ]
}
